Laboratory results published in patent publication US20190201542A1, “ANTI-DLL3 DRUG CONJUGATES FOR TREATING TUMORS AT RISK OF NEUROENDOCRINE TRANSITION” (ABBVIE STEMCENTRX LLC, priority 2016, published 2019).

Target: T1, DLL3 (Homo sapiens, UniProt Q9NYJ7)
T1 sequence (Q9NYJ7 27-618): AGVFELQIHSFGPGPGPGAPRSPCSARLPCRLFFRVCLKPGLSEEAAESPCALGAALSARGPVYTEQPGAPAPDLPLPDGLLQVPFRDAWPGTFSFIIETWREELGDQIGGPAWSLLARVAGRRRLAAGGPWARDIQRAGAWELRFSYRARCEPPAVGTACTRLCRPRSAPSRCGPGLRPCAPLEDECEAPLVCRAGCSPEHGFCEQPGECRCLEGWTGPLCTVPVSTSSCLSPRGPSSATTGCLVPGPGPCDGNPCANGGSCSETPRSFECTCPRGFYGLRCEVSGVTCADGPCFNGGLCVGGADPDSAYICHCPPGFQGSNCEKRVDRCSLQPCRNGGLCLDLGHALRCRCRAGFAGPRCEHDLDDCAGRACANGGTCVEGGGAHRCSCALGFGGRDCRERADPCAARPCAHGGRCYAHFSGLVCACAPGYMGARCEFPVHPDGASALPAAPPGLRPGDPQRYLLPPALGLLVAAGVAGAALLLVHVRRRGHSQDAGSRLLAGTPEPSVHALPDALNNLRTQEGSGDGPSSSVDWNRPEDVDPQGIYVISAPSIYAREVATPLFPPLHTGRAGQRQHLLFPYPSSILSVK
Test: Binning (competitive antibody binding)
Description: It is also possible to characterize the antibodies of the invention in terms of the group or “bin” to which they belong. “Binning” refers to the use of competitive antibody binding assays to identify pairs of antibodies that are incapable of binding an immunogenic determinant simultaneously, thereby identifying antibodies that “compete” for binding. Competing antibodies may be determined by an assay in which the antibody or immunologically functional fragment being tested prevents or inhibits specific binding of a reference antibody to a common antigen. Typically, such an assay involves the use of purified antigen (e.g., DLL3, ASCL1, or a domain or fragment thereof) bound to a solid surface or cells, an unlabeled test antibody and a labeled reference antibody. Competitive inhibition is measured by determining the amount of label bound to the solid surface or cells in the presence of the test antibody. Additional details regarding methods for determining competitive binding are provided in the Examples herein. […]
A schematic summary of the domain-level epitope mapping data of the antibodies tested is presented in FIG. 2, with antibodies binding a linear epitope underlined and, where determined, the corresponding bin noted in parenthesis. […]

B1: SC16.23: murine anti-DLL3 antibody (antibody, V domains shown)
VL: QIVLTQSPAIMSASPGEKVTLTCSASSSVSSRYLYWYQQKPGSSPKLWIYSTSNLASGVPARFSGSGSGTSYSLIISSMEAEDAASYFCHQWSNYPLTFGAGTKLELK
VH: QVTLKESGPGILQPSQTLSLTCSFSGFSLSTSNTGIGWIRQPSGTGLEWLAHIWWNDDKYYNPSLKSRLTISKETSNNQVFLKITNVDTADTASYFCVQIGRDYSNYAWYFDVWGAGTTVTVSS
Q: Which “Binning with SC16.34 or SC16.56” value does the source give for B1 here?
A: Its value is “not to bin with SC16.34 or SC16.56”.
